Assay results published in patent US20250353908A1 (ARCELLX, published 2025).

T1: CS1-Fc (human, UniProt Q9NQ25 23-226)
T1 construct: also called recombinant human CS1-Fc; CS1-Fc polypeptide; not shown: Fc portion of CS1-Fc
T1 sequence: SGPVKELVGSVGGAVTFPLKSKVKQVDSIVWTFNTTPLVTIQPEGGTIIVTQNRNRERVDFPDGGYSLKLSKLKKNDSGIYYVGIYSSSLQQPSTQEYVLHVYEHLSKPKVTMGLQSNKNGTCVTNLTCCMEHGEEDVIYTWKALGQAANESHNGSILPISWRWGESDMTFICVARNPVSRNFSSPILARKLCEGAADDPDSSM


target: T1, CS1-Fc; assay: phage ELISA, CS1-Fc captured on anti-human IgG1-Fc, anti-M13-HRP, A450 target / A450 IgG1-Fc
Experimental: To identify new CS1-specific D domains, a D domain phage library described in Intl. Appl. Pub. No. WO 2016164305 and U.S. Pat. No. 10,662,248 was screened with a CS1-Fc polypeptide following standard protocols. Individual colonies containing phagemid from the CS1 panning output were picked and phage were rescued. To assay target binding by ELISA, 96-well plates were coated with anti-human IgG1-Fc antibody followed by incubation with CS1-Fc or IgG1-Fc. Rescued phage diluted in ELISA blocking buffer was then added to each well. Binding was detected using an HRP-conjugated anti-M13 antibody and the ELISA ratio for each DD sequence was determined as the absorbance at 450 nm for target (i.e., CS1-Fc) divided by that for IgG1-Fc averaged across all screened wells containing that clone.

ELISA score (ratio of phage binding to CS1-Fc vs IgG-Fc) | Binder
13.4 ratio | SEQ ID NO 83 (designed binder) MGSWTEFWARLTAIDLRLIALGGSEAELAAFEKEIAAFESELQAYKGKGNPEVEELRDYAAFIRANLQAYRHN
13.8 ratio | SEQ ID NO 81 (designed binder) MGSWSEFWIRLAAIELRLSALGGSEAELAAFEKEIAAFESELQAYKGKGNPEVEELRDYAAIIRRELQAYRHN
18.7 ratio | SEQ ID NO 79 (designed binder) MGSWSEFWTRLAAIDMRLNALGGSEAELAAFEKEIAAFESELQAYKGKGNPEVEDLRDYAAQIREELQAYRHN
17.7 ratio | SEQ ID NO 78 (designed binder) MGSWAEFWFRLAAIQMRLYALGGSEAELAAFEKEIAAFESELQAYKGKGNPEVEDLRDYAAHIRQELQAYRHN
16.3 ratio | SEQ ID NO 82 (designed binder) MGSWSEFWNRLIAIDYRLLALGGSEAELAAFEKEIAAFESELQAYKGKGNPEVEELRDYAAHIRWNLQAYRHN
17.8 ratio | SEQ ID NO 77 (designed binder) MGSWSEFWFRLLAIEQRLEALGGSEAELAAFEKEIAAFESELQAYKGKGNPEVEDLRDYAALIREMLQAYRHN
16 ratio | SEQ ID NO 75 (designed binder) MGSWHEFWTRLTAIQMRLDALGGSEAELAAFEKEIAAFESELQAYKGKGNPEVEDLRAFAAQIRTHLQAYRHN
18.6 ratio | SEQ ID NO 85 (designed binder) MGSWNEFNERLGAINHRLRALGGSEAELAAFEKEIAAFESELQAYKGKGNPEVEVLREGAAWIRAELQAYRHN
19.6 ratio | SEQ ID NO 89 (designed binder) MGSWSEFNSRLDAIFDRLFALGGSEAELAAFEKEIAAFESELQAYKGKGNPEVEELRSHAANIRASLQAYRHN
16.3 ratio | SEQ ID NO 90 (designed binder) MGSWSEFWIRLDAIRERLWALGGSEAELAAFEKEIAAFESELQAYKGKGNPEVEELRYFAANIRQQLQAYRHN
14.7 ratio | SEQ ID NO 87 (designed binder) MGSWTEFHNRLWAIYDRLDALGGSEAELAAFEKEIAAFESELQAYKGKGNPEVETLRHHAAGIRRSLQAYRHN
16.3 ratio | SEQ ID NO 84 (designed binder) MGSWIEFGWRLQAIEERLRALGGSEAELAAFEKEIAAFESELQAYKGKGNPEVEVLREWAAEIRWQLQAYRHN
6.03 ratio | SEQ ID NO 86 (designed binder) MGSWIEFQTRLEAIYQRLDALGGSEAELAAFEKEIAAFESELQAYKGKGNPEVETLRWHAAGIRQYLQAYRHN
16.6 ratio | SEQ ID NO 76 (designed binder) MGSWEEFQNRLGAIWDRLEALGGSEAELAAFEKEIAAFESELQAYKGKGNPEVESLRWHAAGIRTRLQAYRHN
13.5 ratio | SEQ ID NO 88 (designed binder) MGSWEEFYVRLDAIWERLEALGGSEAELAAFEKEIAAFESELQAYKGKGNPEVEGLRWHAAGIRERLQAYRHN

The next lines start with the binder.

Binder | ELISA score (ratio of phage binding to CS1-Fc vs IgG-Fc)
CS1DD008 (designed binder) MGSWDEFNQRLGAIEERLQALGGSEAELAAFEKEIAAFESELQAYKGKGNPEVEFLRWYAAGIRWELQAYRHN | 19.2 ratio
SEQ ID NO 80 (designed binder) MGSWTEFWYRLSAIDLRLEALGGSEAELAAFEKEIAAFESELQAYKGKGNPEVEELRDYAAYIRAELQAYRHN | 17.8 ratio
SEQ ID NO 73 (designed binder) MGSWSEFWHRLSAIDHRLGALGGSEAELAAFEKEIAAFESELQAYKGKGNPEVEELRAYAAEIRRNLQAYRHN | 18.7 ratio
SEQ ID NO 74 (designed binder) MGSWSEFWMRLTAIDMRLAALGGSEAELAAFEKEIAAFESELQAYKGKGNPEVEELRDYAAVIRESLQAYRHN | 18.3 ratio
SEQ ID NO 71 (designed binder) MGSWSEFWHRLSAIDARLEALGGSEAELAAFEKEIAAFESELQAYKGKGNPEVEDLRAYAAMIRNVLQAYRHN | 14 ratio
SEQ ID NO 66 (designed binder) MGSWAEFWSRLSAIDERLGALGGSEAELAAFEKEIAAFESELQAYKGKGNPEVEELREYAAEIRRVLQAYRHN | 18 ratio
SEQ ID NO 69 (designed binder) MGSWYEFWSRLSAIHVRLEALGGSEAELAAFEKEIAAFESELQAYKGKGNPEVEDLRAYAAFIRSELQAYRHN | 16.9 ratio
SEQ ID NO 70 (designed binder) MGSWMEFWHRLTAIDSRLEALGGSEAELAAFEKEIAAFESELQAYKGKGNPEVEDLRQYAASIRKSLQAYRHN | 10.5 ratio
SEQ ID NO 62 (designed binder) MGSWHFFKARLAYIKQGLEALGGSEAELALFEEFIAEFESDLQQYKGKGNPEVEALRKEAAAIRDELQAYRHN | 13.5 ratio
SEQ ID NO 72 (designed binder) MGSWYEFWHRLTAIEQRLWALGGSEAELAAFEKEIAAFESELQAYKGKGNPEVEDLRSYAAEIRWRLQAYRHN | 8.75 ratio
SEQ ID NO 68 (designed binder) MGSWYEFWTRLTAIQMRLDALGGSEAELAAFEKEIAAFESELQAYKGKGNPEVEDLRAFAAQIRTHLQAYRHN | 13.1 ratio
SEQ ID NO 65 (designed binder) MGSWVEFEWRLYAIAGRLEALGGSEAELAAFEKEIAAFESELQAYKGKGNPEVEYLRQGAARIRATLQAYRHN | 15.7 ratio
CS1DD023 (designed binder) MGSWVEFYDRLEAIWQRLEALGGSEAELAAFEKEIAAFESELQAYKGKGNPEVEKLRRHAAGIRMRLQAYRHN | 18.8 ratio

target: T1, CS1-Fc; assay: SPR (Biacore), adapter protein DD-GS linker-Q26, CS1-Fc target
Text: One or more of the above discussed methods were used to identify the SEQ ID NO: 41-47, 49-61, 91-93 and 96-106 variant CS1 specific D domains. […] In addition to binding human CS1, the CS1DD03, CSDD006 and CS1DD007 D domains are cross-reactive with cyno/rhesus CS1.

Binder | Kd
CS1DD018 adapter protein of the format DD-GS linker-Q26 (designed binder) MGSWDEFNQRLGAFEERLQALGGSEAELAAFEKEIAAFESELQAYKGKGNPEVEFLRWYADGIRWELQAYRHNGGGGDGGGGSGGGGSGQESQALAKRSCGLFQKLGEYYLQNAFLVAYTKKAPQLTSSELMAITRKMAATAATCCQLSEDKLLACGEGAADIIIGHLCIRHEMTPVNPGVGQCCTSSYANRRPCFSSLVVDETYVPPAFSDDKFIFHKDLCQAQGVALQTMKQEFLINLVKQKPQITEEQLEAVIADFSGLLEKCCQGQEQEVCFAEEGQKLISKTRAALGV | 40 nM
CS1DD007 adapter protein of the format DD-GS linker-Q26 (designed binder) MGSWAEFFTRLDAIWERLEGLGGSEAELAALEKEIAAFESELQAYKGKGYPEVETLKFHAAGIRQKLQAYRHN | 23 nM
CS1DD006-P26(Q26) Adapter (designed binder, Monovalent Adapter: CS1DD006 D domain, GS linker, AFP p26 (Q26); The SPR sentence names only the format DD-GS linker-Q26; also called monovalent CS1DD006-P26(Q26); CS1DD006 adapter protein of the format DD-GS linker-Q26) MGSWAEFFTRLDAIWERLEGLGGSEAELAAFEKEIAAFESELQAYKGKGYPEVETLKFHAAGIRQKLQAYRHNGGGGDGGGGSGGGGSGQESQALAKRSCGLFQKLGEYYLQNAFLVAYTKKAPQLTSSELMAITRKMAATAATCCQLSEDKLLACGEGAADIIIGHLCIRHEMTPVNPGVGQCCTSSYANRRPCFSSLVVDETYVPPAFSDDKFIFHKDLCQAQGVALQTMKQEFLINLVKQKPQITEEQLEAVIADFSGLLEKCCQGQEQEVCFAEEGQKLISKTRAALGV | 38 nM
